Measured values taken from patent USRE47150 (Bayer, dated 2018).
Residue numbers refer to the chain shown, from its start. Names may count otherwise.

T1: human tissue factor pathway inhibitor (TFPI) (human, UniProt P10646 29-304, limits assumed)
T1 construct: bought; also called hTFPI; human TFPI
T1 sequence (looked up): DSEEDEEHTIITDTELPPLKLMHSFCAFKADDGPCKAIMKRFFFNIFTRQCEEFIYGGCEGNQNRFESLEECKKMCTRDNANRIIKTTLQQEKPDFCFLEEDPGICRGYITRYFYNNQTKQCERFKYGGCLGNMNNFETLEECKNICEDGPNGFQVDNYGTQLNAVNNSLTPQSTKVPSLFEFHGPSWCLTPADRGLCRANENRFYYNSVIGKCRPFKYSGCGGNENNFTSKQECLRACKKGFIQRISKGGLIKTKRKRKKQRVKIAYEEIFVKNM

T2: mouse tissue factor pathway inhibitor (TFPI) (mouse, UniProt O54819 29-289, limits assumed)
T2 construct: bought; also called mTFPI; murine TFPI
T2 sequence (looked up): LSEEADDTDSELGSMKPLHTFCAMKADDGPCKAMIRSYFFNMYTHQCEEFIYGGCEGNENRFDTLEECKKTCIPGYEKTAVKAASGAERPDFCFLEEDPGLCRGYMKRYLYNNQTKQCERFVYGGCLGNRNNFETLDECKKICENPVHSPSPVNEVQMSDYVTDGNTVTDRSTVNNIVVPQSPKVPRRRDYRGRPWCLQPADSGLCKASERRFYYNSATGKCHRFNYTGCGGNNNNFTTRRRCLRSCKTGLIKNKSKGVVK

B1: 2A8 HC S31V+S35D+I51D+K99V/LC Y48F+D91K (Fab, V domains shown)
VH: QVQLVESGGGLVQPGGSLRLSCAASGFTFRVYGMDWVRQAPGKGLEWVSSDRGSSSSTYYADSVKGRFTISRDNSKNTLYLQMNSLRAEDTAVYYCARVYRYWFDYWGQGTLVTVSS
VL: DIELTQPPSVSVAPGQTARISCSGDNLRNYYAHWYQQKPGQAPVVVIFYDNNRPSGIPERFSGSNSGNTATLTISGTQAEDEADYYCQSWKDGVPVFGGGTKLTVLG
B2: 2A8 HC S35D+I51D+K99L/LC Y48F+D91W (Fab, V domains shown)
VH: B1 VH with V31S, V99L
VL: B1 VL with K91W
B3: 2A8 HC S35D+S55G+K99L/LC Y48F+D91L+V96W (Fab, V domains shown)
VH: B1 VH with V31S, D51I, S55G, V99L
VL: B1 VL with K91L, V96W
B4: 2A8 HC S35D+S50A+K99L/LC Y48F+D91L+V96W (Fab, V domains shown)
VH: B1 VH with V31S, S50A, D51I, V99L
VL: B1 VL with K91L, V96W
B5: 2A8 HC S31V+S35D/LC Y48F+N51V (Fab, V domains shown)
VH: B1 VH with D51I, V99K
VL: B1 VL with N51V, K91D
B6: 2A8 HC S35D+S55R+K99L/LC A13S+Y48F+N51V+D91W (Fab, V domains shown)
VH: B1 VH with V31S, D51I, S55R, V99L
VL: B1 VL with A13S, N51V, K91W
B7: 2A8 HC S35D+K99L/LC Y48F+D91L+D92S+V96W (Fab, V domains shown)
VH: B1 VH with V31S, D51I, V99L
VL: B1 VL with K91L, D92S, V96W
B8: 2A8 HC S35D+S55R+K99L/LC H33Y+Y48F+N51V+D91W (Fab, V domains shown)
VH: B1 VH with V31S, D51I, S55R, V99L
VL: B1 VL with H33Y, N51V, K91W
B9: 2A8 HC S35D+S55R+K99L/LC D1S+Y48F+N51V+D91W (Fab, V domains shown)
VH: B1 VH with V31S, D51I, S55R, V99L
VL: B1 VL with D1S, N51V, K91W
B10: 2A8 HC S35D+S54F+S55R+K99L/LC D91L+V96W (Fab, V domains shown)
VH: B1 VH with V31S, D51I, S54F, S55R, V99L
VL: B1 VL with F48Y, K91L, V96W
B11: 2A8 HC S35D+R52S+S55R+K99L/LC Y48F+N51V+D91W (Fab, V domains shown)
VH: B1 VH with V31S, D51I, R52S, S55R, V99L
VL: B1 VL with N51V, K91W
B12: 2A8 HC S31V+S35D+S54F/LC Y48F+D91L+V96W (Fab, V domains shown)
VH: B1 VH with D51I, S54F, V99K
VL: B1 VL with K91L, V96W
B13: 2A8 HC S35D+I51E+S55R+K99L/LC Y48F+N51V+D91L+V96W (Fab, V domains shown)
VH: B1 VH with V31S, D51E, S55R, V99L
VL: B1 VL with N51V, K91L, V96W
B14: 2A8 HC S35D+K99L/LC Y48F+D91L+V94T+V96W (Fab, V domains shown)
VH: B1 VH with V31S, D51I, V99L
VL: B1 VL with K91L, V94T, V96W
B15: 2A8 HC S35D+I51D+S55R+K99V/LC Y48F+N51V (Fab, V domains shown)
VH: B1 VH with V31S, S55R
VL: B1 VL with N51V, K91D
B16: 2A8 HC S35D+S55R+K99L/LC N26A+Y48F+N51V+D91W (Fab, V domains shown)
VH: B1 VH with V31S, D51I, S55R, V99L
VL: B1 VL with N26A, N51V, K91W
B17: 2A8 HC S35D+K99L/LC Y48F+N51S+D91L+V96W (Fab, V domains shown)
VH: B1 VH with V31S, D51I, V99L
VL: B1 VL with N51S, K91L, V96W
B18: 2A8 HC S35D+K99L/LC D91L+V96W (Fab, V domains shown)
VH: B1 VH with V31S, D51I, V99L
VL: B1 VL with F48Y, K91L, V96W
B19: 2A8 HC S35D+K99L/LC Y48F+D91L+G93S+V96W (Fab, V domains shown)
VH: B1 VH with V31S, D51I, V99L
VL: B1 VL with K91L, G93S, V96W
B20: 2A8 HC S35D+K99L/LC unchanged (Fab, V domains shown)
VH: B1 VH with V31S, D51I, V99L
VL: B1 VL with F48Y, K91D
B21: 2A8 HC S35D+S55R+K99L/LC I2Y+Y48F+N51V+D91W (Fab, V domains shown)
VH: B1 VH with V31S, D51I, S55R, V99L
VL: B1 VL with I2Y, N51V, K91W
B22: 2A8 HC S31V+S35D+S55R/LC Y48F+N51V+D91L+V96W (Fab, V domains shown)
VH: B1 VH with D51I, S55R, V99K
VL: B1 VL with N51V, K91L, V96W
B23: 2A8 HC S31V+S35L+I51E+S54F+K99V/LC N51V+D91K (Fab, V domains shown)
VH: B1 VH with D35L, D51E, S54F
VL: B1 VL with F48Y, N51V
B24: 2A8 HC S35D+S50A+S55R+K99L/LC Y48F+N51V+D91W (Fab, V domains shown)
VH: B1 VH with V31S, S50A, D51I, S55R, V99L
VL: B1 VL with N51V, K91W
B25: 2A8 HC S31V+S50A+I51D+S55R+K99V/LC Y48F+D91L+V96W (Fab, V domains shown)
VH: B1 VH with D35S, S50A, S55R
VL: B1 VL with K91L, V96W
B26: 2A8 HC S35D+K99L/LC Y48F+S89A+D91L+V96W (Fab, V domains shown)
VH: B1 VH with V31S, D51I, V99L
VL: B1 VL with S89A, K91L, V96W
B27: 2A8 HC S31V+S54F+K99L/LC N51V (Fab, V domains shown)
VH: B1 VH with D35S, D51I, S54F, V99L
VL: B1 VL with F48Y, N51V, K91D
B28: 2A8 HC S35D+K99L/LC Y48F+D91L+P95V+V96W (Fab, V domains shown)
VH: B1 VH with V31S, D51I, V99L
VL: B1 VL with K91L, P95V, V96W
B29: 2A8 HC S35D+R52S+K99L/LC Y48F+D91L+V96W (Fab, V domains shown)
VH: B1 VH with V31S, D51I, R52S, V99L
VL: B1 VL with K91L, V96W
B30: 2A8 HC S31V+S35L+I51D+S54F+K99V/LC N51V+D91K (Fab, V domains shown)
VH: B1 VH with D35L, S54F
VL: B1 VL with F48Y, N51V

Molecular target: T1, human tissue factor pathway inhibitor …
Assay: competitive ELISA

First: B1
Second: B2
The variant/HC_K99L of the first is lower: 0.6 ratio for the first, 0.8 ratio for the second.

Compared with B3, B4 is lower in variant/HC_K99L: 18.1 ratio for the first, 4 ratio for the second.

Compared with B5, B6 is higher in variant/HC_K99L: 7.5 ratio for the first, 20.1 ratio for the second.

Compared with B7, B8 is lower in variant/HC_K99L: 20.7 ratio for the first, 14 ratio for the second.

First: B9
Second: B10
The variant/HC_K99L of the first is higher: 21.9 ratio for the first, 14.9 ratio for the second.

Compared with B11, B12 is lower in variant/HC_K99L: 10.1 ratio for the first, 5.4 ratio for the second.

Compared with B13, B14 is higher in variant/HC_K99L: 10.4 ratio for the first, 18.6 ratio for the second.

First: B15
Second: B16
The variant/HC_K99L of the first is higher: 8 ratio for the first, 4.1 ratio for the second.

First: B17
Second: B18
The variant/HC_K99L of the first is higher: 19.9 ratio for the first, 7.1 ratio for the second.

Compared with B19, B20 is lower in variant/HC_K99L: 14.2 ratio for the first, 3.9 ratio for the second.

First: B21
Second: B22
The variant/HC_K99L of the first is higher: 18.7 ratio for the first, 8.7 ratio for the second.

Going from B23 to B24, the variant/HC_K99L rises from 4.9 ratio to 10.9 ratio.

First: B25
Second: B26
The variant/HC_K99L of the first is higher: 16.6 ratio for the first, 4.4 ratio for the second.

Going from B27 to B28, the variant/HC_K99L falls from 16.3 ratio to 10.2 ratio.

Compared with B29, B30 is higher in variant/HC_K99L: 3.9 ratio for the first, 8.6 ratio for the second.

Molecular target: T2, mouse tissue factor pathway inhibitor …
Assay: competitive ELISA

First: B1
Second: B2
The variant/HC_K99L of the first is lower: 0.1 ratio for the first, 0.2 ratio for the second.

First: B3
Second: B4
The variant/HC_K99L of the first is higher: 18.2 ratio for the first, 4.6 ratio for the second.

Compared with B5, B6 is higher in variant/HC_K99L: 7.2 ratio for the first, 19.9 ratio for the second.

Compared with B7, B8 is lower in variant/HC_K99L: 20.5 ratio for the first, 11.2 ratio for the second.

First: B9
Second: B10
The variant/HC_K99L of the first is higher: 22 ratio for the first, 12.1 ratio for the second.

Going from B11 to B12, the variant/HC_K99L falls from 7.9 ratio to 4.2 ratio.

Compared with B13, B14 is higher in variant/HC_K99L: 8 ratio for the first, 19.3 ratio for the second.

Compared with B15, B16 is higher in variant/HC_K99L: 2.7 ratio for the first, 4.1 ratio for the second.

Going from B17 to B18, the variant/HC_K99L falls from 20.3 ratio to 5.4 ratio.

Going from B19 to B20, the variant/HC_K99L falls from 15.6 ratio to 4.5 ratio.

Going from B21 to B22, the variant/HC_K99L falls from 19 ratio to 8.2 ratio.

Compared with B23, B24 is higher in variant/HC_K99L: 3.9 ratio for the first, 12.6 ratio for the second.

First: B25
Second: B26
The variant/HC_K99L of the first is higher: 9.3 ratio for the first, 6.1 ratio for the second.

Going from B27 to B28, the variant/HC_K99L falls from 15.7 ratio to 13.6 ratio.

First: B29
Second: B30
The variant/HC_K99L of the first is lower: 3 ratio for the first, 8.2 ratio for the second.
